Laboratory results reported in patent publication US20060036083.

Test system: ADP-ribosylated HNP-1
Sequence (chain, as listed by the source): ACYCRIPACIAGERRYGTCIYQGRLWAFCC

In the case of “recombinant human ADP-ribosylarginine hydrolase”, the “Release of ADP-ribose from ADP-ribosylated HNP-1 (MALDI-MS)” value is reported as “released a molecule of 3,444 daltons consistent with HNP-1 (calculated 3, 443 daltons)”.
